From patent US20190264194A1 (published 2019)
Positions of bridges follow the written chain, without caps; N, C: chain ends. No end group written: not given here.

Columns and labels:
streptavidin [1] = target: T1, streptavidin (UniProt P22629 37-163, limits assumed); assay: whole-cell dissociation by flow cytometry, 1-2 uM biotin as competitor
T1 construct: Used as phycoerythrin conjugate or on coated beads; also called SA; streptavidin-phycoerythrin
Description: The apparent binding affinities of a subset of the selected peptides were determined using flow cytometric analysis. […] See Daugherty, P. S., et al. (1998) Protein Eng. 11(9):825-832, which is herein incorporated by reference. […] See Daugherty, P. S., et al. (1998) Protein Eng. 11(9):825-832; and Feldhaus, M. J., et al. (2003) Nat. Biotechnol. 21(2): 163-170, which are herein incorporated by reference. […] Apparent dissociation rate constants (kdiss) were determined for streptavidin, using about 1 to about 2 μM biotin as a competitor to prevent re-binding.
(§1) To obtain equilibrium binding curves, cells were labeled over a range of concentrations, e.g., about 0.1 to about 200 nM, of fluorescently conjugated target proteins (streptavidin-phycoerythrin or CRP-Alexa Fluor® 488) and analyzed by flow cytometry, as above. The corresponding mean fluorescence versus concentration data were fit to a monovalent binding isotherm to obtain the apparent KD. Dissociation rates of streptavidin-binding clones were measured in the presence of about 1 to about 2 μM biotin. Cells were labeled with 50 nM streptavidin-phycoerythrin for 30 minutes at room temperature. The cells were then pelleted, resuspended in PBS with biotin, and immediately analyzed by flow cytometry. Fluorescence data were collected continuously for about five minutes. The dissociation rate constants were then determined as described previously. See Daugherty, P. S., et al. (1998) Protein Eng. 11(9):825-832, which is herein incorporated by reference.

streptavidin [2] = target: T1, streptavidin; assay: whole-cell dissociation by flow cytometry (FIG. 10B), SA-7 against SA-1
Description: as §1

streptavidin [3] = target: T1, streptavidin; assay: equilibrium dissociation constant of a selected displayed peptide, whole-cell flow cytometry
Description: as §1

streptavidin [4] = target: T1, streptavidin; assay: whole-cell dissociation by flow cytometry with biotin as competitor
Description: (§2) To enable comparison of the phage and bacterial display peptides, a bacterial display clone was constructed with the insertion, […] (SEQ ID NO:65), and the KD and kdiss were measured in whole cell assays.
as §1

streptavidin [5] = target: T1, streptavidin; assay: apparent whole-cell KD, flow cytometry with streptavidin-phycoerythrin
Description: as §1

streptavidin [6] = target: T1, streptavidin; assay: selection from the E. coli OmpA display library
streptavidin [7] = target: T1, streptavidin; assay: apparent whole-cell KD, flow cytometry with streptavidin-phycoerythrin; remark: listed apart in the source
Description: as §2, §1

For NEWYCQNVCERMPHS (Insert only) [SA-7], which koff (streptavidin [1]) is on record?
The koff was roughly 0.01 s⁻¹.

What about the “fold difference of dissociation rate constant against SA-1” value (streptavidin [2]) of the same binder?
The value was 4 fold.

TVLICMNICWTGETQ (Insert only) [SA-3] was tested. Which Kd (streptavidin [3]) did it give?
Its Kd is 4 nM.

And the koff (streptavidin [4])?
The koff was 0.0007 s⁻¹.

And the Kd (streptavidin [5])?
The Kd was 4 nM.

What about the koff (streptavidin [1]) of the same binder?
Its koff is roughly 0.001 s⁻¹.

Does QVKLHPMAPVVPSHW [SEQ ID NO 243] bind (streptavidin [6])?
Result: binds

B1: Clone HPQ (peptide)
peptide: SAECHPQGPPCIEGR
modifications: disulfide 4-11 (inferred)
notes: Insert only; also called cyclic HPQ clone
Which results are given for B1?
fold faster dissociation rate (kdiss) against clone SA-1 (streptavidin [4]): 20 fold; fold higher apparent KD against clone SA-1 (streptavidin [7]): 5 fold
